{"source": "the DeepSol protein solubility set", "data": [{"assay": "soluble on expression in E. coli; label from the status in PepcDB or PDB records", "values": [{"sequence": "MSLPFPTIPPIAGVEIATGRAGFYKHEREDLLLMRFAEGTSAAGVFTRHGVGSAPVDWCKRQLAATGGADVRALVVNAGCANSFTGKPGADAVRRVATAVGKRFDCRQRDVMMASTGVIGVILDDSKITARLPEVESRLKADAWAEAGRAIMTTDTFPKGAYATAVIDGHEVKIAGIAKGSGMIAPDMATMLAFVATDAAIAPAALQTLVSLYTRTTFNCVTVDGDRSTNDTLLLFATGQSGAPKIHRAGDKRLADFREKLEGVLLDLALQLVKDGEGATKFVKITVNGAESPASARKIARTIAESPLVKTAFAGEDANWGRIVMAVGRADEPVAREKISVKFGDLYAARDGLISAEYDEAKMSAYVKNQAFEVSVDVGVGRGSATVWTCDLTKQYVAINGDYRSEGHHHHHH", "soluble on expression in E. coli": "not soluble"}, {"sequence": "MSLPPRPYDNRPPTGVRAKPVINLNIEYTSCNDSVAPACSTRPMLIENMINQRNVNINVLEGYDPKSKSVINQHSIYHLYEFESKTRFLDRIPRPRVSRFTELKTRFLCCRYVLCAIDDVMQKQKPMELMAIRLNGDIYIGANKSMDLQTDKKTQEAAFGGLNFAMKVTRESDQKILKKHHSVVKQLRIENTRNSMSMSIFVSSVARAFDQRGNVVELKTVGSKVMGKVQNLSRLKARDWWLRALLSGADRIVYGLRMDNMKVNEIHEAQLTDFTKGHFRFDGAKLFSEIFKIFSTIDKIIGAEGDMCMVKSDGSTPISVTLTTRESLKRSPFW", "soluble on expression in E. coli": "not soluble"}, {"sequence": "MSLPTEMHHNLGAEKRSAVATTIDSFKERSQKVRALSDPNVRFVPFFGSSEWLRFDGAHPAVLAEKYNRSYRPYLLGQGGAASLNQYFGMQQMLPQLENKQVVYVISPQWFSKNGYDPAAFQQYFNGDQLTSFLKHQSGDQASQYAATRLLQQFPNVAMKDLVQKLASKEELSTADNEMIELLARFNERQASFFGQFSVRGYVNYDKHVAKYLKILPDQFSYQAIEDVVKADAEKNTSNNEMGMENYFYNEQIKKDLKKLKDSQKSFTYLKSPEYNDLQLVLTQFSKSKVNPIFIIPPVNKKWMDYAGLREDMYQQTVQKIRYQLESQGFTNIADFSKDGGEPFFMKDTIHLGWLGWLAFDKAVDPFLSNPTPAPTYHLNERFFSKDWATYDGDVKEFQEGHHHHHH", "soluble on expression in E. coli": "soluble"}, {"sequence": "MSLQAAGNAPAKISMLLTDGAIGQITKPFPEGGPSAKEVWERETGIEIDIVGAPAEDIFKKVMQDVTTGGGTFDIYTGPWNSTGDLVSSGGAVNCSDFVAKYQPDWADPERGTPTPEMEKLLYTYAGDYYSFSLDGDFQTWFYLKGLYEDPRVQDAFLSETGVALKTPDTWEEVDRISKFFTGKDFGNGPMYGNGNLMSPFWGLATFYARFASMDFPNYHFFDEDGNPNLNSDLGIQCAEEHVRSFEWCPPDALTFTWAEAYATMWNLQIPHTAIYTNLVKFGDGYNADGTPKSKATGMIGSHLPVGRRFGDQLNRRSVLYYHITAWISSQSQHPEAVYLFLQWLSSTRTYTWMAGNPGGYFDPMQQANFKEPLVASTYHPYAMETIPQTIARSVPSINFAGQTALDNALDEEIQAAITGQKSAREAMDAAQSKWERIIKRQEGHHHHHH", "soluble on expression in E. coli": "not soluble"}, {"sequence": "MSLQADFNRPVLAVDTGTSRLSLALRADGETRLFHQEVGSRQSELILPEIRTLFRDAGITAADLGAVVYAQGPGAFTGLRIGIGVAQGLATPFDTPLIGVPSLDAAASLPPPQSCILAATDARMGEVFYAWFDTLNCHRLSDYQVGRAADIRLPEGCAFSDGIGSAFALEEAPPFSGRPDMPTAADFLALAAKGGYPAVHAAHAGLLYVRNKIALTAKEQAERRAEGHHHHHH", "soluble on expression in E. coli": "soluble"}, {"sequence": "MSLQGGIRFSDGIAAVADNEVITRRRLAEAVAEAKANLPKDAQISESELSRQVLMQLVNQSLIVQAGKRRNIQASEAEIDAVVAKNPALKNLSPAQRRDFADNIIAEKVRQQAVMQNSRVSEAEIDAFLEQAQKQGITLPEGAPLRQYRAQHILIKADSENAAVGAESTIRKIYGEARSGTDFSSLARQYSQDASAGNGGDLGWFADGVMVPAFEEAVHALKPGQVGAPVRTQFGWHIIKLNEVRDAGTPQERIRNSVRQYIFQQKAEQATVNLLRDLHSGAYVDIREGHHHHHH", "soluble on expression in E. coli": "soluble"}, {"sequence": "MSLQGRRRKSLVFFPFFKINDKGASAMEEMVVVTPEKLEKLMKQKLEAAGLHSEHAEEVARHLTFADASGIHSHGAVRMDYYAERIAKGGITIDPELSFEKTGPSTAIFHGDNGVGQFVCNEALAAAVDLAKESGVAYVGVSQTSHSGTLSYYVKKAAEQGMVALSMCQSDPMVVPFGGTSNYFGTNPIAFAAPRAGHEPVVFDMATTVQAWGKILDARSRDVEIPDTWAVDEKGQPTTDPYEVRGLLPISGPKGYGLMMMVDVLAGSLLGLPFGKHVSSMYADLTEKRNLGQMFLVIDPSRFTDSERFKENINQMVEELHCVPTAEGFQQVYYPGEIGQLNYQKAMSEGIEIPQSIYDYLVSEIVHYDKYGGQGAFAKEGGSHHHHHH", "soluble on expression in E. coli": "soluble"}, {"sequence": "MSLQKITVPTWAEINLDNLRFNLNNIKNLLEEDIKICGVIKADAYGHGAVEVAKLLEKEKVDYLAVARTAEGIELRQNGITLPILNLGYTPDEAFEDSIKNKITMTVYSLETAQKINEIAKSLGEKACVHVKIDSGMTRIGFQPNEESVQEIIELNKLEYIDLEGMFTHFATADEVSKEYTYKQANNYKFMSDKLDEAGVKIAIKHVSNSAAIMDCPDLRLNMVRAGIILYGHYPSDDVFKDRLELRPAMKLKSKIGHIKQVEPGVGISYGLKYTTTGKETIATVPIGYADGFTRIQKNPKVLIKGEVFDVVGRICMDQIMVRIDKDIDIKVGDEVILFGEGEVTAERIAKDLGTINYEVLCMISRRVDRVYMENNELVQINSYLLKEGHHHHHH", "soluble on expression in E. coli": "soluble"}, {"sequence": "MSLQKKAMIIYNPAAGKNKFRKLLPDAEKILTEADFEVTLVPSTPAPKSTTFIAKQAAEAGFDVVIAAGGDGTVNEVVNGLMQVDTPPKLGVLPVGTTNDYARALNFAKNPLEALRIIAKQETIRVDIGKANETEFFINNAAGGKITEITYAVKESMKSKWGRLAYLFSGLTVLPKLSPVYVEIAYNDKIFKGEILLFFVNKSNSVGGMETLCPPAELNSGMFELLILKKVSPKTLFQLFASIKKGTHLSSPHVIHARTNKVTINSEADLNVSYDGVYGGKAPYTLEVIPEALEVFADTNRISSRLRGEGHHHHHH", "soluble on expression in E. coli": "soluble"}, {"sequence": "MSLQLLAPGANTALANAHCSWNLESGTSSVFGEYAAVALLAVNEKRQPMGDPALLHQEQSWMEWSGGPQDVGCTLKLDRLPAGSDRVLLMVYVYAAMGPIRDFASLRLKVDANIEHRLDLRDNGEAAIIIGEFYKRNDQWKFRALSEGSAYGLSAFGRKIGLEVDDRHPRRPSGGSGGPAGGPRHESATGTAFVVGPAHVMTCAHVIEDMGVFYINSLEGRYKAEAVVIDRRNDIALLRVQGAPPLSAVTFREGQGCEPGDTVAVLGYPLASISGGGLQVTQGGISGLFGLHNDASLFQFTAPIQPGSSGSPLFDNGGAVIGMVTSTVPDGQNMNFAVKSALLMSFLQACRIDAPHARAERSYTTTEISRTFQSSLWLVEASREGHHHHHH", "soluble on expression in E. coli": "soluble"}, {"sequence": "MSLQRLLQHSSNGNLADFCAGPAYSSYSTLTGSLTMDDNRRIQMLADTVATLPRGRKQLALTRSSSLSDFSWSQRKLVTVEKQDNETFGFEIQSYRPQNQNACSSEMFTLICKIQEDSPAHCAGLQAGDVLANINGVSTEGFTYKQVVDLIRSSGNLLTIETLNGTMILKRTELEAKLQVLKQTLKQKWVEYRSLQLQEHRLLHGDAANCPSLENMDLDELSLFGPLPGPGPALVDRNRLSSESSCKSWLSSMTMDSEDGYQTCVSEDSSRGAFSRQTSTDDECFIPKEGDDFLRRSSSRRNRSISNTSSGSMSPLWEGNLSSMFGTLPRKSRKGSVRKQLLKFIPGLHRAVEEEESRF", "soluble on expression in E. coli": "soluble"}, {"sequence": "MSLQTIKIGLPVPLSGPYGAEAQDQVRNAELAVKQFNDAGGLDGRKAQLLVRDDRLNPAEAATRALELIEKDGVNFIVGGLSAATQLSINNVTRQRKKLYISISQSDAINEAADASPYTFHEALNPHMTTQAVGKYVFKPGMRVAFLTADYAYGHEMTRGFTEVARQQGAEVVGEVKHPLGASDYSAFLPRLKALNPDVLVFNNFGADNRISIKQAADFGMKRNIRFVTPILTYTARVSGGAATYQDVVGGTQYYWAIQDSVPSAKAFNAAFQAENNGRFPSDYGAMAYSAVKSLLLAVRDAGSTDTDEVAAALRKLKYDTYKGAQYYRGCDQQSVQSVLVIQSVGKDNAHPDEVFKLLHTEAPSEGHHHHHH", "soluble on expression in E. coli": "soluble"}, {"sequence": "MSLRDEFSLIRSISPANVHQPSLHVGIGDDAAIYEGAPEMEEVLCVDTMVEEIHFRRDTLTPFQIGYKSLAINISDLAAMGATPKFYLVSIAVPPQWSDREIKTLYRGMAECAAPYRMDLIGGDTVSTNAKLVVTVTAVGHVPKGTRLLRQRARPGDVVFLTGTVGQSAAGLELLNKKGLHGPFTEEEELLVLAHQQPQPQVEAGHLFARSGYRIALNDVSDGVASEANELAEASKVKLVLKANTIPLHPAMETFSKEQQLEWALFGGEDFQLIGTAAVDAFASLQQLAIQRGISLTEIGYVEAGSPVVELEEGTARSVLKKSGYNHFAKEGHHHHHH", "soluble on expression in E. coli": "soluble"}, {"sequence": "MSLRDLLLIDHPLCQAVFSRQGAQLLHFQPQGERPLLWCAGEWPALSSAPVRGGIPVCWPWFGSHPNGSEWPQQGWARQREWRLLDAYADESKVVVSWQLDLEDWHVRLDARLGQRLELELCSYHEEDDDCLFSFALQPYWRVGALSRVVVHGMELESARGQRGASRIPGTWIPRGAVKQVLYHPGSLVLEDGGWNRRLRIDKNVSAGSVIWHPGSRPVEQVEPGEAERFLCIGAAGYRPGGLILAPGERMRLSLAAGLQEGHHHHHH", "soluble on expression in E. coli": "not soluble"}, {"sequence": "MSLREDLLEETRKSCQKKIDELEDALSELKKETSQKDHHIKQLEEDNNSNIEWYQNKIEALKKDYESVITSVDSKQTDIEKLQYKVKSLEKEIEEDKIRLHTYNVMDETINDDSLRKELEKSKINLTDAYSQIKEYKDLYETTSQSLQQTNSKLDESFKDFTNQIKNLTDEKTSLEDKISLLKEQMFNLNNELDLQKKGMEKEKADFKKRISILQNNNKEVEAVKSEYESKLSKIQNDLDQQTIYANTAQNNYEQELQKHADVSKTISELREQLHTYKGQVKTLNLSRDQLENALKENEKSWSSQKESLLEQLDLSNSRIEDLSSQNKLLYDQIQIYTAADKEVNNSTNGPGLNNILITLRRERDILDTKVTVAERDAKMLRQKISLMDVELQDARTKLDNSRVEKENHSSIIQQHDDIMEKLNQLNLLRESNITLRNELENNNNKKKELQSELDKLKQNVAPIESELTALKYSMQEKEQELKLAKEEVHRWKKRSQDILEKHEQLSSSDYEKLESEIENLKEELENKERQGAEAEEKFNRLRRQAQERLKTSKLSQDSLTEQVNSLRDAKNVLENSLSEANARIEELQNAKVAQGNNQLEAIRKLQEDAEKASRELQAKLEESTTSYESTINGLNEEITTLKEEIEKQRQIQQQLQATSANEQNDLSNIVESMKKSFEEDKIKFIKEKTQEVNEKILEAQERLNQPSNINMEEIKKKWESEHEQEVSQKIREAEEALKKRIRLPTEEKINKIIERKKEELEKEFEEKVEERIKSMEQSGEIDVVLRKQLEAKVQEKQKELENEYNKKLQEELKDVPHSSHISDDERDKLRAEIESRLREEFNNELQAIKKKSFDEGKQQAMMKTTLLERKLAKMESQLSETKQSAESPPKSVNNVQNPLLGLPRKIEENSNSPFNPLLSGEKLLKLNSKSSSGGFNPFTSPSPNKHLQNDNDKRESLANKTDPPTHLEPSFNIPASREGHHHHHH", "soluble on expression in E. coli": "soluble"}, {"sequence": "MSLRFDFHTHTVFSDGELIPAELVRRARVLKHRAIAITDHADFSNYKELIEKTTIAKEELKKYWDDIIVIVGVELTHIPPKSIPKMAKKAKDLGAEIVVVHGETVVEPVEEKTNYYASISEDVDILAHPGFIDKETAENLKENDIFVEITSRRGHNITNGYVANIAREFGLKTLINTDTHAPEDLIDDEFAKKVGLGAGLTNKELENTLLHYPKELLKREGHHHHHH", "soluble on expression in E. coli": "soluble"}]}]}
